Among the data in paper PMC6883375, “Enolase From Aspergillus fumigatus Is a Moonlighting Protein That Binds the Human Plasma Complement Proteins Factor H, FHL-1, C4BP, and Plasminogen” (Frontiers in Immunology, 2019) are Kd values, retold here.

For experiment [1], the target named is Aspergillus fumigatus enolase (AfEno1), recombinant His-tagged (Aspergillus fumigatus) (UniProt Q96X30). Kind of experiment: BLI; His-tagged AfEno1 on Ni-NTA biosensors; factor H, C4BP or plasminogen as analyte; DPBS with 0.001% gelatin, RT; association 250 s, dissociation 250 s; 1:1 model; heat inactivated regulators as non-binding control. (In general: In BLI a coated tip is dipped into the sample, and binding shifts an interference pattern.)

The target of experiment [2] is T1, human C4b binding protein (C4BP) (human, UniProt P04003 49-597; P20851 18-252).
T1 construct: also called NHS-derived C4BP; plasma-derived C4BP; source: bought: CompTech (purified human C4BP); also in normal human serum (NHS); copies: 7 + 1
T1 sequence 1: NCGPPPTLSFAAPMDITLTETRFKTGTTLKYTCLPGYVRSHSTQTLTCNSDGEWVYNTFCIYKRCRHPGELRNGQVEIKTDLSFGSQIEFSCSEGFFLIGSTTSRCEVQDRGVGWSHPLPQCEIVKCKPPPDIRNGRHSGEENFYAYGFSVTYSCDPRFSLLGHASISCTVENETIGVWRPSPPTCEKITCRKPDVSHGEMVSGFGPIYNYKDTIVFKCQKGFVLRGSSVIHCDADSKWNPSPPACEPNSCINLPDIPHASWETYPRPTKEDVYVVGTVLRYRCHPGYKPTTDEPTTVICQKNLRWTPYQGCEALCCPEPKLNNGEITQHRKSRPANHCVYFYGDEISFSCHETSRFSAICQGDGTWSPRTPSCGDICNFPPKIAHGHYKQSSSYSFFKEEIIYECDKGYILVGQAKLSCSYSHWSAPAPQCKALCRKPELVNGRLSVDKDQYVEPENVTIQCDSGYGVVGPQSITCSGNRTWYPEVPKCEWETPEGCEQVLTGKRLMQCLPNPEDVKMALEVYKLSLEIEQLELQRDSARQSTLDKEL
T1 sequence 2: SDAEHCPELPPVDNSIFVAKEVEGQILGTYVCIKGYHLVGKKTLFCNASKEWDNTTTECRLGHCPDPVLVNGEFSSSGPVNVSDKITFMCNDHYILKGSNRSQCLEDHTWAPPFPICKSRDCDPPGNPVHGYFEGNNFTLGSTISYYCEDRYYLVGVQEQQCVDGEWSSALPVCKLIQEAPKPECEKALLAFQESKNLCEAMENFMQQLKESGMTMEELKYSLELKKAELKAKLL
Described as above. The settings on record: both partners purified.

Experiment [3] addresses T2, human factor H (human, UniProt P08603 19-1231).
T2 construct: complement factor H, human, 150-kDa plasma protein of 20 short conserved repeats (SCRs); also called NHS-derived factor H; serum-derived Factor H; source: bought: CompTech (purified human factor H); also in normal human serum (NHS)
The experiment is described as above. The conditions noted are these: both partners purified.

Experiment [4] deals with T2, human factor H. Kind of experiment: not stated; data not shown; method and format not told.

T2 sequence (P08603 19-1231): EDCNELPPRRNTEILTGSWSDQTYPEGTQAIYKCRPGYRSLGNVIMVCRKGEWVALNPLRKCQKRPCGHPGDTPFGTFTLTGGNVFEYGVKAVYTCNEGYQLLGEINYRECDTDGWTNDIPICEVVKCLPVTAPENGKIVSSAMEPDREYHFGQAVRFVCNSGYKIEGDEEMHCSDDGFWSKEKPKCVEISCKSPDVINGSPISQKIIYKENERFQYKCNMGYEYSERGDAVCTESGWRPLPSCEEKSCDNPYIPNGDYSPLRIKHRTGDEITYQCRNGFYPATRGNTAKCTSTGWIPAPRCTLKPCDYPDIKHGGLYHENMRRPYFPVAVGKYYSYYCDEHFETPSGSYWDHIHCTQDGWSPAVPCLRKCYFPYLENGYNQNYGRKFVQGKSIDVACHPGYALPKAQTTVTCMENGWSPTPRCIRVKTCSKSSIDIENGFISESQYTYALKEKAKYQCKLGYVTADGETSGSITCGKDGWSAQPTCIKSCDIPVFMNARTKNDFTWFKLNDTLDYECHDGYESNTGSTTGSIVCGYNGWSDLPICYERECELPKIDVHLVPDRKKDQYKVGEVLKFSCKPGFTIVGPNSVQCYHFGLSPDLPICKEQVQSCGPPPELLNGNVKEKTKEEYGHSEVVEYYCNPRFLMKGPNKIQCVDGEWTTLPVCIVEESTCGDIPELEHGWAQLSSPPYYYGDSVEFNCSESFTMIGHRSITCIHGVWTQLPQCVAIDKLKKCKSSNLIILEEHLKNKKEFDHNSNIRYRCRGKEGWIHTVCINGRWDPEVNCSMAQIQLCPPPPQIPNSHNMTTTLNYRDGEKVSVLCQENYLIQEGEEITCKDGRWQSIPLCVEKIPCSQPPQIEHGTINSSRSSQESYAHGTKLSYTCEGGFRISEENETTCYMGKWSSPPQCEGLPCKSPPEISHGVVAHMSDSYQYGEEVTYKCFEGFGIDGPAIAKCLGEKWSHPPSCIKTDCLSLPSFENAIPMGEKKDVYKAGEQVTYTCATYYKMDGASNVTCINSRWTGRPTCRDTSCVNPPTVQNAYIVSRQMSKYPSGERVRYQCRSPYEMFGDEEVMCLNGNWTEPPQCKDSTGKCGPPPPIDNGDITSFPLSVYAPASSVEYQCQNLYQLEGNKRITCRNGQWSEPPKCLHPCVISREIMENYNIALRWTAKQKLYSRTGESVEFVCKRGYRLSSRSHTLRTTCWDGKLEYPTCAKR

For orientation: Kd means the constant that tells how readily two partners part at equilibrium. For the molecule human plasminogen (natural protein), the Kd in experiment [1] turned out to be 530 nM.

B1: Aspergillus fumigatus enolase (AfEno1), recombinant His-tagged (natural protein)
chain: MPISKIHARSVYDSRGNPTVEVDVVTETGLHRAIVPSGASTGQHEAHELRDGDKTQWGGKGVLKAVKNVNETIGPALIKENIDVKDQSKVDEFLNKLDGTANKSNLGANAILGVSLAVAKAGAAEKGVPLYAHISDLAGTKKPYVLPVPFQNVLNGGSHAGGRLAFQEFMIVPDSAPSFSEALRQGAEVYQKLKALAKKKYGQSAGNVGDEGGVAPDIQTAEEALDLITEAIEQAGYTGKIKIAMDVASSEFYKADVKKYDLDFKNPESDPSKWLTYEQLADLYKSLAAKYPIVSIEDPFAEDDWEAWSYFYKTSDFQIVGDDLTVTNPGRIKKAIELKSCNALLLKVNQIGTLTESIQAAKDSYADNWGVMVSHRSGETEDVTIADIAVGLRSGQIKTGAPCRSERLAKLNQILRIEEELGENAVYAGSKFRTAVNL
notes: enolase (AfEno1, allergen Aspf22) of Aspergillus fumigatus; the gene was cloned with six His residues added at the N-terminus; Vector printed as 'pET 4.1 a'; also called Aspf22; recombinant AfEno1; source: E. coli BL21 (DE3), purified (Ni-NTA, HisTrap); not shown: His6, N-terminal, kept
Turning to B1, the Kd in experiment [2] is 131 nM; with human factor H [3], 528 nM.

B2: Candida albicans Pra1 (pH-regulated antigen 1) (natural protein)
chain: APVTVTRFVDASPTGYDWRADWVKGFPIDSSCNATQYNQLSTGLQEAQLLAEHARDHTLRFGSKSPFFRKYFGNETASAEVVGHFDNVVGADKSSILFLCDDLDDKCKNDGWAGYWRGSNHSDQTIICDLSFVTRRYLTQLCSSGYTVSKSKTNIFWAGDLLHRFWHLKSIGQLVIEHYADTYEEVLELAQENSTYAVRNSNSLIYYALDVYAYDVTIPGEGCNGDGTSYKKSDFSSFEDSDSGSDSGASSTASSSHQHTDSNPSATTDANSHCHTHADGEVHC
notes: pH-regulated antigen 1 (Pra1) of Candida albicans; the construct is not described; also called C. albicans Pra1
For B2, in the experiment with human factor H [4], the Kd was 1.87 nM.
